{"source": "paper PMC4705684", "about": "“DNA binding fluorescent proteins for the direct visualization of large DNA molecules”", "key": {"[1]": {"system": "FP(eGFP)-DBP (synthetic construct; expressed in E. coli BL21 (DE3))", "assay": "EMSA", "settings": "EMSA: 1x TE (10 mM Tris, 1 mM EDTA, pH 8.0) with 50% (v/v) glycerol, 10 ul, DNA stock ~31.4 nM, protein stocks 74 nM-148 uM, 0.5x TBE 4-20% PAGE, temperature …"}, "DBP peptide KWKWKKA": {"biological_target": "T1, DBP peptide KWKWKKA (synthetic construct)", "T1 chain": "KWKWKKA", "assay": "UV absorbance quenching at 260 nm; stoichiometry 3 bp per DBP; EMSA: 1x TE (10 mM Tris, 1 mM EDTA, pH 8.0) with 50% (v/v) glycerol, 10 ul, DNA stock ~31.4 nM, protein stocks 74 nM-148 uM, 0.5x TBE 4-20% PAGE, temperature not stated; spectra in 1x TE; imaging in TE pH 8.0", "settings": "label: none (EtBr post-stain in EMSA); blunt"}}, "data": [{"molecule": "CTACTAGCACAATCGACTGTACGGACCGATCGAGTCACTAGCAGTCTAGCAA (double strand) [52-mer random dsDNA]", "values": [{"measurement": "Kd", "setting": "[1]", "result": 14.7, "unit": "µM"}]}, {"molecule": "52-mer random dsDNA (dsDNA) DNA 1: CTACTAGCACAATCGACTGTACGGACCGATCGAGTCACTAGCAGTCTAGCAA DNA 2: TTGCTAGACTGCTAGTGACTCGATCGGTCCGTACAGTCGATTGTGCTAGTAG", "values": [{"measurement": "binding result", "setting": "DBP peptide KWKWKKA", "result": "binds"}]}]}
